According to US20240400693A1 (Chugai, published 2024):

How the values were obtained:
HLA-DQ2.5 on Ba/F3 cells = biological target: T1, HLA-DQ2.5 on Ba/F3 cells (human, UniProt P01909 24-216, limits assumed); assay: FACS, Ba/F3 cells; %MFI: IC17dK 0, DQN0139bb 100
T1 construct: whole, on cells; MHC class II without fused peptide; also called Ba/F3-HLA-DQ2.5

HLA-DQ7.3 on Ba/F3 cells = biological target: T2, HLA-DQ7.3 on Ba/F3 cells (human, UniProt P01909 24-216; P01920 33-230, limits assumed); assay: FACS, Ba/F3 cells; %MFI: IC17dK 0, DQN0139bb 100
T2 construct: whole, on cells; also called Ba/F3-HLA-DQ7.3
T2 MHC II alpha: not shown
T2 MHC II beta: not shown

HLA-DQ7.5 on Ba/F3 cells = biological target: T3, HLA-DQ7.5 on Ba/F3 cells (human, UniProt P01909 24-216; P01920 33-230, limits assumed); assay: FACS, Ba/F3 cells; %MFI: IC17dK 0, DQN0139bb 100
T3 construct: whole, on cells; also called Ba/F3-HLA-DQ7.5

HLA-DQ2.2 on Ba/F3 cells = biological target: T4, HLA-DQ2.2 on Ba/F3 cells (human, UniProt P01909 24-216, limits assumed); assay: FACS, Ba/F3 cells; %MFI: IC17dK 0, DQN0139bb 100
T4 construct: whole, on cells; also called Ba/F3-HLA-DQ2.2
T4 MHC II alpha: not shown
T4 MHC II beta: not shown

HLA-DQ8 on Ba/F3 cells = biological target: T5, HLA-DQ8 on Ba/F3 cells (human, UniProt P01909 24-216; P01920 33-230, limits assumed); assay: FACS, Ba/F3 cells; %MFI: IC17dK 0, DQN0139bb 100
T5 construct: whole, on cells; also called Ba/F3-HLA-DQ8
T5 MHC II alpha: not shown
T5 MHC II beta: not shown

[1] = biological target: HLA-DQ2.5 on IHW09023 cells loaded with 33mer gliadin peptide (human; wheat); assay: cell-based or functional assay
[2] = biological target: HLA-DQ2.5 on IHW09023 cells loaded with gamma 2 gliadin peptide (human; wheat); assay: cell-based or functional assay
[3] = biological target: HLA-DQ2.5 on IHW09023 cells loaded with BC hordein peptide (human; barley); assay: cell-based or functional assay
[4] = biological target: HLA-DQ2.5 on IHW09023 cells loaded with gamma 1 gliadin peptide (human; wheat); assay: cell-based or functional assay
[5] = biological target: HLA-DQ2.5 on IHW09023 cells loaded with gamma 3 gliadin peptide (human; wheat); assay: cell-based or functional assay
[6] = biological target: HLA-DQ2.5 on IHW09023 cells loaded with gamma 4d gliadin peptide (human; wheat); assay: cell-based or functional assay
[7] = biological target: HLA-DQ2.5 on IHW09023 cells loaded with gamma 4a gliadin peptide (human; wheat); assay: cell-based or functional assay
[8] = biological target: HLA-DQ2.5 on IHW09023 cells loaded with omega1/2 gliadin peptide (human; wheat); assay: cell-based or functional assay
HLA-DR on Ba/F3 cells = biological target: T6, HLA-DR on Ba/F3 cells (human, UniProt P01903 26-216; P79483 30-227, limits assumed); assay: FACS, Ba/F3 cells; raw MFI
T6 construct: whole, on cells; also called Ba/F3-HLA-DR
T6 MHC II alpha: not shown
T6 MHC II beta: not shown

HLA-DQ6.3 on Ba/F3 cells = biological target: T7, HLA-DQ6.3 on Ba/F3 cells (human, UniProt P01920 33-230, limits assumed); assay: FACS, Ba/F3 cells; raw MFI
T7 construct: whole, on cells; also called Ba/F3-HLA-DQ6.3
T7 MHC II alpha: not shown
T7 MHC II beta: not shown

HLA-DP on Ba/F3 cells = biological target: T8, HLA-DP on Ba/F3 cells (human, UniProt P20036 29-222; P04440 30-225, limits assumed); assay: FACS, Ba/F3 cells; raw MFI
T8 construct: whole, on cells; also called Ba/F3-HLA-DP
T8 sequence (P20036 29-222 limits assumed, chain 1 of 4, other chains not shown): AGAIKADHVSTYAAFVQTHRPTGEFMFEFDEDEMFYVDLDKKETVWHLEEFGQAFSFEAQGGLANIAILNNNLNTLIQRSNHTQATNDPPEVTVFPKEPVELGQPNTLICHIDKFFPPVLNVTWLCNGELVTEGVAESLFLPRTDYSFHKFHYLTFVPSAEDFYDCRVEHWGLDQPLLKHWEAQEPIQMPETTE
T8 sequence (P04440 30-225 limits assumed, chain 2 of 4, other chains not shown): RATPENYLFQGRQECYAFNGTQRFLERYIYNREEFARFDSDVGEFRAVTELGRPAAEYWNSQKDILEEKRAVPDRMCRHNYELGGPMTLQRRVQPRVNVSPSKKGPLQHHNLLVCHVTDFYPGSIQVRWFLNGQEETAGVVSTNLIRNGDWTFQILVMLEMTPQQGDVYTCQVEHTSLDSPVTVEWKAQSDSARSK

HLA-DQ5.1 on Ba/F3 cells = biological target: T9, HLA-DQ5.1 on Ba/F3 cells (human, limits assumed); assay: FACS, Ba/F3 cells; raw MFI
T9 construct: whole, on cells; also called Ba/F3-HLA-DQ5.1
T9 MHC II alpha: not shown
T9 MHC II beta: not shown

B1: DQN0344H1013/L0620//DQN0385H1521/L0605-F6 (bispecific antibody)
heavy 1: QVQLVESGGGVVQPGRSLRLSCAASGFTFSSAYWMVWVRQAPGQGLEWMGAVYGGSDTTYYAKWTEGRFTISRDTSKNTLYLQMNSLRAEDTAVYYCAREPLNYYYYGELNVWGQGTLVTVSSASTKGPSVFPLAPSSKSTSGGTAALGCLVKDYFPEPVTVSWNSGALTSGVHTFPAVLKSSGLYSLSSVVTVPSSSLGTQTYICNVNHKPSNTKVDKRVEPKSCDKTHTCPPCPAPELRRGPSVFLFPPKPKDTLMISRTPEVTCVVVDVSHEDPEVKFNWYVDGVEVHNAKTKPREEQYNSTYRVVSVLTVLHQDWLNGKEYKCKVSNKALPAPIEKTISKAKGQPREPQVYTLPPSREEMTKNQVSLTCLVKGFYPSDIAVEWESNGQPENNYKTTPPYLDSDGSFFLYSKLTVDKSRWQEGNVFSCSVLHEALHAHYTREELSLSP
light 1: DIQMTQSPSSLSASVGDRVTITCQATENIYSGLAWYQQKPGKAPKLLIYYVSTLAYGIPARFSGSGSGTDFTLTISSLEPEDFAVYYCQTYEDVSAVTFGQGTKVEIKRTVAAPSVFIFPPSDEQLKSGTAEVVCLLNNFYPREAKVQWKVDNALQSGNSEESVTEQDSKDSTYSLSSTLTLSKADYEKHKVYACEVTHQGLSSPVTKSFNRGEC
heavy 2: QVQLVESGGGVVQPGRSLRLSCAASGFTFESWYFMSWVRQAPGKGLEWVASIDTGSGSIDYAEWVEGRFTISRDNSKNTLYLQMNSLRAEDTAVYYCARDIGIDYNFWGPGTLVTVSSASTKGPSVFPLAPSSKSTSGGTAALGCLVEDYFPEPVTVSWNSGALTSGVHTFPAVLESSGLYSLSSVVTVPSSSLGTKTYICNVNHKPSNTKVDKRVEPKSCDKTHTCPPCPAPELRRGPSVFLFPPKPKDTLMISRTPEVTCVVVDVSHEDPEVKFNWYVDGVEVHNAKTKPREEQYNSTYRVVSVLTVLHQDWLNGKEYKCKVSNKALPAPIEKTISKAKGQPREPQVYTLPPSRKEMTKNQVSLTCLVKGFYPSDIAVEWESNGQPENNYKTTPPYLDSDGSFFLYSKLTVDKSRWQQGNVFSCSVLHEALHAHYTRKELSLSP
light 2: DIQMTQSPSSLSASVGDRVTITCQTTQSISSYLNWYQQKPGQPPKLLIYYASTKAEGIPARFSGSGSGTDFTLTISSLEPEDFAVYYCHYGISKVSFGQGTKVEIKRTVAAPSVFIFPPSDEQLKSGTAKVVCLLNNFYPREAKVQWKVDNALQSGNSKESVTEQDSKDSTYSLSSTLTLSKADYEKHKVYACEVTHQGLSSPVTKSFNRGEC
HLA-DQ2.5 on Ba/F3 cells
  binding result: no binding (tested: 0.05 micro g/mL)
HLA-DQ7.3 on Ba/F3 cells
  binding result: no binding (tested: 0.05 micro g/mL)
HLA-DQ7.5 on Ba/F3 cells
  binding result: no binding (tested: 0.05 micro g/mL)
HLA-DQ2.2 on Ba/F3 cells
  binding result: no binding (tested: 0.05 micro g/mL)
HLA-DQ8 on Ba/F3 cells
  binding result: no binding (tested: 0.05 micro g/mL)
[1]
  IC50 (ng/mL), α1a gliadin TCR, 250 nM 33mer gliadin: 0.28 ng/mL
  IC50 (ng/mL), α1b gliadin TCR, 250 nM 33mer gliadin: 1.76 ng/mL
  IC50 (ng/mL), α2 gliadin TCR, 250 nM 33mer gliadin: 0.33 ng/mL
[2]
  IC50 (ng/mL), γ2 gliadin TCR, 250 nM γ2 gliadin: 853 ng/mL
[3]
  IC50 (ng/mL), BC hordein TCR, 250 nM BC hordein: 8.98 ng/mL
[4]
  IC50 (ng/mL), γ1 gliadin TCR, 250 nM γ1 gliadin: 0.68 ng/mL
[5]
  IC50 (ng/mL), γ3 gliadin TCR, 100 µM γ3 gliadin: 1.4 ng/mL
[6]
  IC50 (ng/mL), γ4d gliadin TCR, 100 µM γ4d gliadin: 13 ng/mL
[7]
  IC50 (ng/mL), γ4a gliadin TCR, 25 µM γ4a gliadin: 1350 ng/mL
[8]
  IC50 (ng/mL), ω1 gliadin TCR, 25 µM ω1/2 gliadin: 1.91 ng/mL
HLA-DR on Ba/F3 cells
  binding result: no binding (tested: 0.05 micro g/mL)
HLA-DQ6.3 on Ba/F3 cells
  binding result: no binding (tested: 0.05 micro g/mL)
HLA-DP on Ba/F3 cells
  binding result: no binding (tested: 0.05 micro g/mL)
HLA-DQ5.1 on Ba/F3 cells
  binding result: no binding (tested: 0.05 micro g/mL)
